# T1: recombinant mouse HEXB (beta-subunit of beta-hexosaminidase) (mouse, UniProt P20060 32-536)
# T1 sequence (looked up): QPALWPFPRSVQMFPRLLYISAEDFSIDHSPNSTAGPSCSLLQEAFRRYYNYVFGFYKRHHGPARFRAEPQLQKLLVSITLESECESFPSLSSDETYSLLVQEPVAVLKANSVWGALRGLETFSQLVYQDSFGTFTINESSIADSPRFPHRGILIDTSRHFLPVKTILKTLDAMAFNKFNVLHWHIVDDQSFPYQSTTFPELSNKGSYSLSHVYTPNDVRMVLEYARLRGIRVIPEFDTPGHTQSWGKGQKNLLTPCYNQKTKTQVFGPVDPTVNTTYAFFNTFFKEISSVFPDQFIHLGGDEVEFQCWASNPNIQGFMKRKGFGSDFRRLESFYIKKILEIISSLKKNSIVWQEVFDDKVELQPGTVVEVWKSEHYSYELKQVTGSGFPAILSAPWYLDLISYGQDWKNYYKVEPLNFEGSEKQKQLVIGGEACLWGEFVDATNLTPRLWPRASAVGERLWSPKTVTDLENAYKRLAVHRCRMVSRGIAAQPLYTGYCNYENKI
# B1: mouse-Transferrin-G-CSF-HEXA (mTr-G-CSF-HEXA) (other)
# chain: HAIYPRHGSVPLVTVSALPPSLPLPRSFLLKSLEQVRKIQASGSVLLEQLCATYKLCHPEELVLLGHSLGIPKASLSGCSSQALQQTQCLSQLHSGLCLYQGLLQALSGISPALAPTLDLLQLDVANFATTIWQQMENLGVAPTVQPTQSAMPAFTSAFQRRAGGVLAISYLQGFLETARLALHHLAGSGSDRVYIHPFHLGSGSGGSGGSGGSGSGGSGSGGSGGSGLWPWPQYIQTYHRRYTLYPNNFQFRYHVSSAAQAGCVVLDEAFRRYRNLLFGSGSWPRPSFSNKQQTLGKNILVVSVVTAECNEFPNLESVENYTLTINDDQCLLASETVWGALRGLETFSQLVWKSAEGTFFINKTKIKDFPRFPHRGVLLDTSRHYLPLSSILDTLDVMAYNKFNVFHWHLVDDSSFPYESFTFPELTRKGSFNPVTHIYTAQDVKEVIEYARLRGIRVLAEFDTPGHTLSWGPGAPGLLTPCYSGSHLSGTFGPVNPSLNSTYDFMSTLFLEISSVFPDFYLHLGGDEVDFTCWKSNPNIQAFMKKKGFTDFKQLESFYIQTLLDIVSDYDKGYVVWQEVFDNKVKVRPDTIIQVWREEMPVEYMLEMQDITRAGFRALLSAPWYLNRVKYGPDWKDMYKVEPLAFHGTPEQKALVIGGEACMWGEYVDSTNLVPRLWPRAGAVAERLWSSNLTTNIDFAFKRLSHFRCELVRRGIQAQPISVGYCEQEFEQT
# Molecular target: T1, recombinant mouse HEXB (beta-subunit of …)
# Assay: binding to a coated plate, bound protein read by HexA enzymatic activity
binder,measurement,value
B1,Kd,0.166 µM

# From publication PMC11357852 (Molecular Therapy. Methods & Clinical Development, 2024)
